According to patent US20250186594A1 (BRIGHT PEAK THERAPEUTICS, published 2025):

T1: IL-18 receptor (IL-18R) on HEK-Blue IL18R reporter cells (UniProt Q13478 19-541; O95256 20-599, limits assumed)
T1 sequence (looked up) 1: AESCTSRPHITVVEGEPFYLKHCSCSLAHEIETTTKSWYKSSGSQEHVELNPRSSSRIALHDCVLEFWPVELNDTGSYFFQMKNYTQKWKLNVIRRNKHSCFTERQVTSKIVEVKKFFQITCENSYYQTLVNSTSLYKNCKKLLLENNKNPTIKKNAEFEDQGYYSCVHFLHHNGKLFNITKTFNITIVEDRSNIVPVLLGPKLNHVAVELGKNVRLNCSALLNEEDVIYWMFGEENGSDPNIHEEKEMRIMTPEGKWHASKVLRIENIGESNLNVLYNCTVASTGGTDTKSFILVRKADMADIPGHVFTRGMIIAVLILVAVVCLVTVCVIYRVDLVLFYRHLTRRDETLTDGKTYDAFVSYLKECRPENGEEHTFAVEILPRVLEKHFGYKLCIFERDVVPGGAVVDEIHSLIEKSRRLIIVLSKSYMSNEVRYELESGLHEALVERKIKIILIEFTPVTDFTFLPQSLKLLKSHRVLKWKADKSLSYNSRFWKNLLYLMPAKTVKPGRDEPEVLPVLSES
T1 sequence (looked up) 2: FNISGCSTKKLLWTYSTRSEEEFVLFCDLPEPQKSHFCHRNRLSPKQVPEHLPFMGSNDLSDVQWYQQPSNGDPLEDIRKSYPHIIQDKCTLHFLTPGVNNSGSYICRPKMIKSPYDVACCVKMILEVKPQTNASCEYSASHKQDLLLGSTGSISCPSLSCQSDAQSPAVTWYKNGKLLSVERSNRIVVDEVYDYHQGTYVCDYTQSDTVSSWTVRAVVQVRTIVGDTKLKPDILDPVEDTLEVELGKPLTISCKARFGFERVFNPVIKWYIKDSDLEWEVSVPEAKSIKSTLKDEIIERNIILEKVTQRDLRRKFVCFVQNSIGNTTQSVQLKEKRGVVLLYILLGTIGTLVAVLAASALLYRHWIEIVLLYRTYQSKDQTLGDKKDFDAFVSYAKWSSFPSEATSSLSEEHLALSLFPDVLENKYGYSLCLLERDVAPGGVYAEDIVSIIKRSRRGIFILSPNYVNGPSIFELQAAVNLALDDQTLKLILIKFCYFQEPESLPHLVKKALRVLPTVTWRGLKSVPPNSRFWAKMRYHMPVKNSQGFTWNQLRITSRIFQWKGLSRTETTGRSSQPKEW

T2: IL-18Rα/β heterodimer (Fc fused human IL-18Rα mixed with Fc fused human IL-18Rβ) (human, UniProt Q13478 19-329; O95256 20-356, limits assumed)
T2 construct: Alpha and beta Fc fusions were mixed and pre-incubated for 30 min before capture on anti-human IgG; also called alpha/beta heterodimer IL-18 receptor; heterodimeric human IL-18 receptor alpha (CD218a) and IL-18R accessory protein (IL-18RAP/CDw218b); not shown: Fc
T2 sequence (looked up) 1: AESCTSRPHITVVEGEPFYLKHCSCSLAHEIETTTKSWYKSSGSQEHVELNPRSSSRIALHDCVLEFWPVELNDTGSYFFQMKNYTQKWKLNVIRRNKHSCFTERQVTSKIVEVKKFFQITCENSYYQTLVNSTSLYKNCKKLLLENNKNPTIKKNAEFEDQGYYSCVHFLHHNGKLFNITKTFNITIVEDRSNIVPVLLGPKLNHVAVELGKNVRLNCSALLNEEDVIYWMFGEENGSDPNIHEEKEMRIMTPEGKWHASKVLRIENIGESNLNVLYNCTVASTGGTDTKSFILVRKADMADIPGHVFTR
T2 sequence (looked up) 2: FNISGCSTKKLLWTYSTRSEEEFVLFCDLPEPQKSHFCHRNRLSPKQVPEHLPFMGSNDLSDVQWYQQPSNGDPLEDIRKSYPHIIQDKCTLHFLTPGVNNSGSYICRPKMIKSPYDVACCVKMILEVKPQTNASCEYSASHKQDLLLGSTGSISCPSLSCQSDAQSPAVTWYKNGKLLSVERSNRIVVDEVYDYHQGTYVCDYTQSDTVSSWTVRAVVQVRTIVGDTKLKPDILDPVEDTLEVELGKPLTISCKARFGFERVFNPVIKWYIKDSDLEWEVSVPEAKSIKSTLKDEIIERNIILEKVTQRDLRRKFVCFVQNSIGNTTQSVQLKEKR


Legend:
[1] = target: T1, IL-18 receptor (IL-18R) on HEK-Blue …; assay: cell-based or functional assay
[2] = target: T2, IL-18Rα/β heterodimer (Fc fused human …); assay: SPR, Fc-IL-18Rα/β captured, heterogeneous ligand fit
Description: The interaction of the wild type and of modified IL-18 polypeptides with human IL-18 receptor subunits are measured with Surface Plasmon Resonance (SPR) technology. Anti-human IgG antibodies are bound by amine coupling onto a CM5 chip to capture 6 µg/mL of Fc fused human IL-18Rα, […] of Fc fused human IL-18Rβ, or […] of Fc fused human IL-18BP isoform a (IL-18BPa) for 30 min before capture. In other settings, […] of alpha and beta IL-18 receptors are mixed and pre-incubated for 30 min before capture of the alpha/beta heterodimer IL-18 receptor.
The kinetic binding of the IL-18 analytes are measured with a Biacore 8K instrument in two fold serial dilutions starting at […] down to 0.98 nM. Regeneration of the surface back to amine coupled anti IgG antibody is done after every concentration of analyte. To measure the protein association to the receptors, the samples are injected with a flow rate of […] for 60 s, followed by 300 s buffer only to detect the dissociation. The used running buffer is 1×PBS with 0.05% Tween20. The relative response units (RU, Y-axis) are plotted against time (s, X-axis) and analyzed in a kinetic 1:1 binding model for the monomer receptor binding and for the binding to the IL-18BP. A kinetic heterogenous ligand fit model is applied for the alpha/beta heterodimer binding.

| Binder | EC50, HEK-Blue IL18R reporter [1] | also measured |
| --- | --- | --- |
| IL-18 variant SEQ ID NO: 212 (V11I, D35A, C38A, K53A, C76A, C127A) (ligand) YFGKLESKLSIIRNLNDQVLFIDQGNRPLFEDMTASDARDNAPRTIFIISMYADSQPRGMAVTISVKCEKISTLSAENKIISFKEMNPPDNIKDTKSDIIFFQRSVPGHDNKMQFESSSYEGYFLAAEKERDLFKLILKKEDELGDRSIMFTVQNED | 13.1 nM |  |
| IL-18 variant SEQ ID NO: 213 (V11I, S36A, C38A, K53A, C76A, C127A) (ligand) YFGKLESKLSIIRNLNDQVLFIDQGNRPLFEDMTDADARDNAPRTIFIISMYADSQPRGMAVTISVKCEKISTLSAENKIISFKEMNPPDNIKDTKSDIIFFQRSVPGHDNKMQFESSSYEGYFLAAEKERDLFKLILKKEDELGDRSIMFTVQNED | 0.25 nM |  |
| IL-18 variant SEQ ID NO: 211 (V11I, T34A, C38A, K53A, C76A, C127A) (ligand) YFGKLESKLSIIRNLNDQVLFIDQGNRPLFEDMADSDARDNAPRTIFIISMYADSQPRGMAVTISVKCEKISTLSAENKIISFKEMNPPDNIKDTKSDIIFFQRSVPGHDNKMQFESSSYEGYFLAAEKERDLFKLILKKEDELGDRSIMFTVQNED | 0.7 nM |  |
| IL-18 variant SEQ ID NO: 205 (V11I, C38A, K53A, T63A, C76A, C127A) (ligand) YFGKLESKLSIIRNLNDQVLFIDQGNRPLFEDMTDSDARDNAPRTIFIISMYADSQPRGMAVAISVKCEKISTLSAENKIISFKEMNPPDNIKDTKSDIIFFQRSVPGHDNKMQFESSSYEGYFLAAEKERDLFKLILKKEDELGDRSIMFTVQNED | 0.17 nM |  |
| IL-18 variant SEQ ID NO: 208 (V11I, C38A, K53A, D54A, C76A, C127A) (ligand) YFGKLESKLSIIRNLNDQVLFIDQGNRPLFEDMTDSDARDNAPRTIFIISMYAASQPRGMAVTISVKCEKISTLSAENKIISFKEMNPPDNIKDTKSDIIFFQRSVPGHDNKMQFESSSYEGYFLAAEKERDLFKLILKKEDELGDRSIMFTVQNED | 1 nM |  |
| IL-18 variant SEQ ID NO: 209 (F2A, V11I, C38A, K53A, C76A, C127A) (ligand) YAGKLESKLSIIRNLNDQVLFIDQGNRPLFEDMTDSDARDNAPRTIFIISMYADSQPRGMAVTISVKCEKISTLSAENKIISFKEMNPPDNIKDTKSDIIFFQRSVPGHDNKMQFESSSYEGYFLAAEKERDLFKLILKKEDELGDRSIMFTVQNED | 7.28 nM |  |
| IL-18 variant SEQ ID NO: 206 (V11I, C38A, K53A, S55A, C76A, C127A) (ligand) YFGKLESKLSIIRNLNDQVLFIDQGNRPLFEDMTDSDARDNAPRTIFIISMYADAQPRGMAVTISVKCEKISTLSAENKIISFKEMNPPDNIKDTKSDIIFFQRSVPGHDNKMQFESSSYEGYFLAAEKERDLFKLILKKEDELGDRSIMFTVQNED | 3.63 nM |  |
| IL-18 variant SEQ ID NO: 210 (V11I, E31A, C38A, K53A, C76A, C127A) (ligand) YFGKLESKLSIIRNLNDQVLFIDQGNRPLFADMTDSDARDNAPRTIFIISMYADSQPRGMAVTISVKCEKISTLSAENKIISFKEMNPPDNIKDTKSDIIFFQRSVPGHDNKMQFESSSYEGYFLAAEKERDLFKLILKKEDELGDRSIMFTVQNED | 6.6 nM |  |
| IL-18 variant SEQ ID NO: 204 (V11I, C38A, K53A, C76A, C127A) (ligand) YFGKLESKLSIIRNLNDQVLFIDQGNRPLFEDMTDSDARDNAPRTIFIISMYADSQPRGMAVTISVKCEKISTLSAENKIISFKEMNPPDNIKDTKSDIIFFQRSVPGHDNKMQFESSSYEGYFLAAEKERDLFKLILKKEDELGDRSIMFTVQNED | 0.98 nM |  |
| IL-18 variant SEQ ID NO: 62 with 30 kDa PEG (E6K, C38A, K53A, C127A, C68-30kPEG) (ligand, 30 kDa PEG on Cys 68 (C68-30kPEG), also called 62 + PEG) YFGKLKSKLSVIRNLNDQVLFIDQGNRPLFEDMTDSDARDNAPRTIFIISMYADSQPRGMAVTISVKCEKISTLSCENKIISFKEMNPPDNIKDTKSDIIFFQRSVPGHDNKMQFESSSYEGYFLAAEKERDLFKLILKKEDELGDRSIMFTVQNED |  | Kd [2]: 14.9 nM; koff [2]: 0.000779 s⁻¹; kon [2]: 52300 M⁻¹ s⁻¹ |

More lines, main results first:

| EC50, HEK-Blue IL18R reporter [1] | Binder | also measured |
| --- | --- | --- |
| 0.04 nM | IL-18 variant SEQ ID NO: 240 (E6R, V11I, C38A, K53A, T63A, C76A, C127A) (ligand) YFGKLRSKLSIIRNLNDQVLFIDQGNRPLFEDMTDSDARDNAPRTIFIISMYADSQPRGMAVAISVKCEKISTLSAENKIISFKEMNPPDNIKDTKSDIIFFQRSVPGHDNKMQFESSSYEGYFLAAEKERDLFKLILKKEDELGDRSIMFTVQNED |  |
| 14.1 nM | IL-18 variant SEQ ID NO: 214 (V11I, D37A, C38A, K53A, C76A, C127A) (ligand) YFGKLESKLSIIRNLNDQVLFIDQGNRPLFEDMTDSAARDNAPRTIFIISMYADSQPRGMAVTISVKCEKISTLSAENKIISFKEMNPPDNIKDTKSDIIFFQRSVPGHDNKMQFESSSYEGYFLAAEKERDLFKLILKKEDELGDRSIMFTVQNED |  |
| 1.95 nM | IL-18 variant SEQ ID NO: 218 (V11I, C38A, K53A, C76A, C127A, D132A) (ligand) YFGKLESKLSIIRNLNDQVLFIDQGNRPLFEDMTDSDARDNAPRTIFIISMYADSQPRGMAVTISVKCEKISTLSAENKIISFKEMNPPDNIKDTKSDIIFFQRSVPGHDNKMQFESSSYEGYFLAAEKERALFKLILKKEDELGDRSIMFTVQNED |  |
| 11.7 nM | IL-18 variant SEQ ID NO: 217 (V11I, C38A, N41A, K53A, C76A, C127A) (ligand) YFGKLESKLSIIRNLNDQVLFIDQGNRPLFEDMTDSDARDAAPRTIFIISMYADSQPRGMAVTISVKCEKISTLSAENKIISFKEMNPPDNIKDTKSDIIFFQRSVPGHDNKMQFESSSYEGYFLAAEKERDLFKLILKKEDELGDRSIMFTVQNED |  |
| 11.9 nM | IL-18 variant SEQ ID NO: 215 (V11I, E31A, D37A, C38A, K53A, C76A, C127A) (ligand) YFGKLESKLSIIRNLNDQVLFIDQGNRPLFADMTDSAARDNAPRTIFIISMYADSQPRGMAVTISVKCEKISTLSAENKIISFKEMNPPDNIKDTKSDIIFFQRSVPGHDNKMQFESSSYEGYFLAAEKERDLFKLILKKEDELGDRSIMFTVQNED |  |
| 0.02 nM | IL-18 variant SEQ ID NO: 243 (Y1M, E6K, V11I, C38A, K53A, T63A, C76A, C127A) (ligand) MFGKLKSKLSIIRNLNDQVLFIDQGNRPLFEDMTDSDARDNAPRTIFIISMYADSQPRGMAVAISVKCEKISTLSAENKIISFKEMNPPDNIKDTKSDIIFFQRSVPGHDNKMQFESSSYEGYFLAAEKERDLFKLILKKEDELGDRSIMFTVQNED |  |
| 0.52 nM | IL-18 variant SEQ ID NO: 216 (V11I, C38A, D40A, K53A, C76A, C127A) (ligand) YFGKLESKLSIIRNLNDQVLFIDQGNRPLFEDMTDSDARANAPRTIFIISMYADSQPRGMAVTISVKCEKISTLSAENKIISFKEMNPPDNIKDTKSDIIFFQRSVPGHDNKMQFESSSYEGYFLAAEKERDLFKLILKKEDELGDRSIMFTVQNED |  |
